Results reported in patent publication US20200247855A1, “THERAPY AND DIAGNOSTICS” (OXFORD UNIVERSITY INNOVATION LIMITED, priority 2017, published 2020).

What was measured:
CXCL11_HUMAN = target: T1, CXCL11_HUMAN (Homo sapiens, UniProt O14625); assay: Yeast surface display (YSD) FACS binding; conditions: FACS re-test; mean percent shift where several clones
T1 sequence (O14625 22-94): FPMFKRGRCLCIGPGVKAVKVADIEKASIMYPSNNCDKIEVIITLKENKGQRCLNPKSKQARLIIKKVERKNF
How it was run: (§1)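 Yeast clones displaying tick peptides were re-tested by FACS with labelled chemokine detected by streptavidin-Alexa conjugate. Binding was scored as % of peptide-expressing cells above a background set with streptavidin-Alexa alone, averaged over independent clones. In the screen tables, >3-fold over background mean fluorescence intensity was scored as binding.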

[1] = test system: human CCL5 together with CXCL8, CXCL1, CCL3 or CCL2; assay: Biolayer interferometry polyvalent binding (association with CCL5, then CCL5 plus second chemokine); conditions: BLI, wavelength shift in association 2
human CCL5 together with CXCL8, CXCL1, CCL3 or CCL2, sequence (P13501 24-91): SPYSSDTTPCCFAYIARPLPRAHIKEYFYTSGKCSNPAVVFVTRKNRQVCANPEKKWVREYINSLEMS
Excerpt: FIG. 10. Polyvalent binding of CC and CXC chemokines to two-warhead evasins. […] This was followed by association with CCL5+CXCL8 (light grey trace), or with CCL5+CXCL1 (dark grey trace) or CCL5+CCL3 (black trace) (association 2), and then dissociated in buffer (dissociation).
FIG. 11. Polyvalent binding of CC and CXC chemokines to two-warhead evasins. […] This was followed by association with CCL5+CXCL8 (light grey trace), or with CCL5+CXCL1 (dark grey trace) or CCL5+CCL2 (black trace) (association 2), and then dissociated in buffer (dissociation).
The ability of 2-warhead evasins to engage in polyvalent binding of CC and CXC chemokines was further determined.

CXCL12_HUMAN = CXCL12_HUMAN (Homo sapiens, UniProt P48061); assay: Yeast surface display (YSD) FACS binding; conditions: yeast surface display
CXCL12_HUMAN, sequence (P48061 22-93): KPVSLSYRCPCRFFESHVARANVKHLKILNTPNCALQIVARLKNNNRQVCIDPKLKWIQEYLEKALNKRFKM
How it was run: as §1

CCL20_HUMAN = CCL20_HUMAN (Homo sapiens, UniProt P78556); assay: Yeast surface display (YSD) FACS binding
CCL20_HUMAN, sequence (P78556 27-96): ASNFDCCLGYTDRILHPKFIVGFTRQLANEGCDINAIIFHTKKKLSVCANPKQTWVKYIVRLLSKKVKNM
How it was run: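 Yeast clones displaying tick peptides were re-tested by FACS with labelled chemokine. Binding = % of peptide-expressing yeast above a background threshold set with streptavidin-Alexa647 alone; the mean percent shift was used where several clones were isolated. Confirmed binding ("YES") required >3-fold over background mean fluorescence intensity.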

B1: P1078_IXORI: novel CXC-binding tick CKBP, Ixodes ricinus (protein, listed as Ixodes ricinus)
chain: GSKGSSAQQSSHDSIKAEFCETNCTMKTGGKWTQCHGGCFCVHVGNETVGRCIKLDGDYDYPSSKHEE
For B1, the “Chemokines bound in yeast surface display and % cells over threshold fluorescence: CXCL11_HUMAN” value (CXCL11_HUMAN) was “CXCL11_HUMAN 38%”.

B2: SEQ ID NO: 73: two-warhead evasin: P991_AMBCA linked via GGGGS linker to P1156_IXORI (protein)
chain: ENGEGTTQPDYDNSTDYYNYEDFKCTCPAPHLNNTNGTVMKPIGCYYTCNVTRCTAPDTYPCYNLTEHQAKNLTTSPTTLCAVGNCDHGICVPNGTKELCFKAPNLEEGGGGSADDDNELFTVQYCGMNCTKDEGGTWTGCTGKKEGCKCYHESGKNYGLCLSTEYTDFSQYGNPSDSEIEAAKPKRSDTLSH
modifications: hybrid polypeptide
notes: two-warhead evasin: P991_AMBCA linked via GGGGS linker to P1156_IXORI
In the case of B2, the “Polyvalent (simultaneous) binding of CC and CXC chemokines” value (shortened to “Polyvalent (simultaneous) binding”) [1] is reported as “can associate simultaneously with CCL5 and either CXCL8 or CXCL1”.

B3: P942_IXORI: novel CXC-binding tick CKBP, Ixodes ricinus (protein, listed as Ixodes ricinus)
chain: NQLSGPQSSANSNEAVFCDTNCTQGTDEAWSGCRGDCFCVYVGNSTEGRCMMLSGDFDYSTPGAED
For B3, the “Chemokines bound in yeast surface display and % cells over threshold fluorescence: CXCL11_HUMAN” value (CXCL11_HUMAN) was “CXCL11_HUMAN 37%”.

B4: SEQ ID NO: 81: two-warhead evasin: P1156_IXORI linked via GGGGS linker to P1243_AMBAM (protein)
chain: ADDDNELFTVQYCGMNCTKDEGGTWTGCTGKKEGCKCYHESGKNYGLCLSTEYTDFSQYGNPSDSEIEAAKPKRSDTLSHGGGGSRNHTEDNSTEYYDYEEARCACPARHLNNTNGTVLKLLGCHYFCNGTLCTAPDGYPCYNLTAQQVRTLTTYPNTSCAVGVCMKGTCVKNGTMEQCFKTP
modifications: hybrid polypeptide
notes: two-warhead evasin: P1156_IXORI linked via GGGGS linker to P1243_AMBAM
With B4 the “Polyvalent (simultaneous) binding” value [1] was “can associate simultaneously with CCL5 and either CXCL8 or CXCL1”.

B5: P675_IXORI: novel CXC-binding tick CKBP, Ixodes ricinus (protein, listed as Ixodes ricinus)
chain: GSNQLSGPQSSANSNDAVFCDTNCTQGTDGAWSGCRGDCFCVHVGNSTEGRCIELIGDFDYSTPGAED
B5 was tested, and the “Chemokines bound in yeast surface display and % cells over threshold fluorescence: CXCL11_HUMAN” value (CXCL11_HUMAN) was “CXCL11_HUMAN 55%”.

B6: P1090_IXORI: novel CXC-binding tick CKBP, Ixodes ricinus (protein, listed as Ixodes ricinus)
chain: GSKELSGPESSENSIEAAFCDTNCTEGTDGVWSGCSAGCFCVHVGNSTVGRCMTFNGVDGG
With B6 the “Chemokines bound in yeast surface display and % cells over threshold fluorescence: CXCL11_HUMAN” value (CXCL11_HUMAN) was “CXCL11_HUMAN 32%”.

B7: SEQ ID NO: 80: two-warhead evasin: P1156_IXORI linked via GGGGS linker to P991_AMBCA (protein)
chain: ADDDNELFTVQYCGMNCTKDEGGTWTGCTGKKEGCKCYHESGKNYGLCLSTEYTDFSQYGNPSDSEIEAAKPKRSDTLSHGGGGSENGEGTTQPDYDNSTDYYNYEDFKCTCPAPHLNNTNGTVMKPIGCYYTCNVTRCTAPDTYPCYNLTEHQAKNLTTSPTTLCAVGNCDHGICVPNGTKELCFKAPNLEE
modifications: hybrid polypeptide
notes: two-warhead evasin: P1156_IXORI linked via GGGGS linker to P991_AMBCA
With B7 the “Polyvalent (simultaneous) binding” value [1] was “can associate simultaneously with CCL5 and either CXCL8 or CXCL1”.

B8: P1015_AMBCA: tick CKBP, Amblyomma cajennense (protein)
chain: EEAPGPAPGCGEPEPTPPKPRRHGIVTNVNSCNSTILVWNGKEFPALCKVRCPHKSYRVSDFEPCLKFTNRRFLQERKDETPYKCKLGFCRHGTCITSEHSRKVPCKVPADRLDPSE
modifications: Amblyomma cajennense
For B8, the “Binding to CXCL12_HUMAN, YSD” value (CXCL12_HUMAN) was “YES (An arbitrary threshold of >3 fold over background mean fluorescence intensity was chosen to describe confirmed re-tests. Where binding was detected data are indicated as “YES”)” and the “Binding to CCL20_HUMAN, YSD” value (CCL20_HUMAN) was “YES (An arbitrary threshold of >3 fold over background mean fluorescence intensity was chosen to describe confirmed re-tests. Where binding was detected data are indicated as “YES”)”.
